Data: the supplement of paper PMC6755084

Test system: F1*sub RNA substrate (template-directed ligation)
Assay: fraction ligated after 30 min (ligated reads / total reads); higher = more ligase activity; sequences stand for … in GAGACCGCAACTGAAAAGTTGT…AGTTCTGCACGTAGAAGCAAAAGGC
Conditions: 42 °C
Outline: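 Ribozyme variants were transcribed with T7 from PCR-amplified oligo-pool templates and gel-purified. Ligated and unligated bands, separated on gel, were reverse transcribed with barcoded primers and sequenced on a MiSeq, with core bases filtered at quality ≥20. Fraction ligated per variant was computed as ligated reads divided by total reads.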

Going from TACACTTGTCGAAGCACTTTGGATGGGTTGA [3d648] to “TATCACTGTCGAAGACACTTTGATGGGTTGA [3d1379]”, the fraction ligated rises from 0.134 to 0.75.

Going from “TATCACTTGTCGTAAACACTTTGGAGGGTTGA [2d240]” to “TATCCTTGTCGTAAACACTTTGGAGGGTTGA [3d1061]”, the fraction ligated falls from 0.0926 to 0.0122.

Compared with TACACTGTCGTAAGACACTTTGGATGGGTTG [3d584], “TATCACTGTGTAGACACTTTGGATGGGTTGA [3d1345]” is higher in fraction ligated: 0.321 for the first, 0.886 for the second.

Going from TACACTTGTCGTAAGCACTTTGGATGGGTTG [3d691] to TATACTTGTCGTAAACACTTTGATGGGTTGA [3d887], the fraction ligated rises from 0.151 to 0.182.

Compared with “TATCACTGTCGTAAGACCTTTGGATGGGTTA [3d1431]”, “TATCACGTCGTAAGAACTTTGGATGGGTTGA [3d1301]” is higher in fraction ligated: 0.808 for the first, 0.825 for the second.

Going from TATCCTTTCGTAAGACATTTGGATGGGTTGA [3d976] to TATATTGTCGTAAGCACTTTGGATGGGTTGA [3d766], the fraction ligated falls from 0.787 to 0.411.

First: TACACTTGTCGAAACACTTTGGATGGGTTGA [3d647]
Second: TATACTTGCGTAAACACTTTGGATGGGTTGA [3d816]
The fraction ligated of the first is lower: 0.16 for the first, 0.464 for the second.

First: TACACTTTCGAAGACACTTTGGATGGGTTGA [3d587]
Second: TATCACTTGTCGTAAGAATTTGGATGGGTTA [3d2157]
The fraction ligated of the first is lower: 0.0357 for the first, 0.765 for the second.

Compared with “TATCACTTGTCGTAAGCCTTTGGATGGGTTA [3d2119]”, “TATCACTCGTAAGACACTTTGGATGGGTTGA [3d1293]” is lower in fraction ligated: 0.79 for the first, 0.783 for the second.

First: TATCACTTGTCGTGAACTTTGGATGGGTTGA [3d1983]
Second: ATCACTGTCGTAAGACACTTTGGATGGGTTG [3d123]
The fraction ligated of the first is higher: 0.773 for the first, 0.74 for the second.

First: ATCACTTGTCTAAGACATTTGGATGGGTTGA [3d177]
Second: TATCACTTGTCGTAGACACTTTGATGGTTGA [3d2045]
The fraction ligated of the first is higher: 0.756 for the first, 0.0405 for the second.

Going from “TATCACTTGCGAAGACCTTTGGATGGGTTGA [3d1617]” to TATCCTTTCGTAAGACACTTTGGATGGGTTG [3d983], the fraction ligated falls from 0.779 to 0.766.

First: TATCACTTGTGTAAGACACTTTATGGGTTGA [3d1793]
Second: TATCACTTTCTAAGACACTTTGATGGGTTGA [3d1487]
The fraction ligated of the first is lower: 0.0875 for the first, 0.77 for the second.

Going from ATCACTTGTCGTAAGCACTTTGGATGGGTTGA [2d14] to ATCACTTGTCGTAAGACTTTGGATGGGTTGA [3d221], the fraction ligated falls from 0.782 to 0.727.

Going from “TATCACTTGTCGAAACACTTTGGATGGGTTG [3d1924]” to ATCACTTGTCTAAGACACTTTGGTGGGTTGA [3d180], the fraction ligated falls from 0.817 to 0.0503.

Compared with TATACTTGCGTAAGACACTTTGGAGGGTTGA [3d824], “TATCACTTGTCGTAGACCTTGGATGGGTTGA [3d2021]” is higher in fraction ligated: 0.0191 for the first, 0.79 for the second.

Compared with ACACTTGTCGTAAGACATTTGGATGGGTTGA [3d38], TACATTGTCTAAGACACTTTGGATGGGTTGA [3d551] is lower in fraction ligated: 0.484 for the first, 0.0666 for the second.

Compared with TTCACTTGTCGTAAGACACTTGGATGGGTTGA [2d40], “TATCACTGTCGTAAGCACTTTGGATGGTTGA [3d1415]” is lower in fraction ligated: 0.656 for the first, 0.175 for the second.

First: TATACTTGTGTAAGCACTTTGGATGGGTTGA [3d832]
Second: TATCACTTGTCGTAGAACTTTGGAGGGTTGA [3d2017]
The fraction ligated of the first is higher: 0.776 for the first, 0.119 for the second.

First: ATCACTTGTCGTAAGACACTTGGTGGGTTGA [3d255]
Second: TATCACTTGTGTAGACACTTTGGATGGGTTA [3d1742]
The fraction ligated of the first is lower: 0.00771 for the first, 0.828 for the second.

Going from “TATCACTGTCTAAGACACTTTGGATGGTTGA [3d1369]” to “TATCACTGTCGTAAGACACTTTGGTGGGTTA [3d1455]”, the fraction ligated falls from 0.239 to 0.0411.

First: TATCACTTGTCGTAAGACCTTTGATGGGTTA [3d2194]
Second: TATCACTTGTCGTAACACTTTGGATGGGTTG [3d2002]
The fraction ligated of the first is lower: 0.0671 for the first, 0.806 for the second.

First: TACACTTGTCGTAAGACACTTTATGGGTTGA [3d721]
Second: TTCACTGTCGTAAGACACTTTGGATGGGTTGA [2d28]
The fraction ligated of the first is lower: 0.0103 for the first, 0.795 for the second.

Going from TTCACTTTCGTAAGACACTTGGATGGGTTGA [3d364] to “TATCACTTGTCGTAAGCCTTTGGATGGGTTG [3d2120]”, the fraction ligated rises from 0.13 to 0.782.

Compared with “TATCCTTGTCGTAAGAACTTTGATGGGTTGA [3d1077]”, TTCCTTGTCGTAAGACACTTTGATGGGTTGA [3d311] is lower in fraction ligated: 0.8 for the first, 0.595 for the second.

First: TATACTTGTGTAAGACCTTTGGATGGGTTGA [3d834]
Second: TATCACTGTCGTAGACACTTTGGATGGGTTG [3d1397]
The fraction ligated of the first is lower: 0.721 for the first, 0.811 for the second.

Compared with “TATCACTTGTCGTAAGCACTTGGATGGGTTA [3d2133]”, TATACTTGCGTAAGACACTTTGGTGGGTTGA [3d823] is lower in fraction ligated: 0.565 for the first, 0.014 for the second.

First: TATCACTTTCGTAAGACACTTTGATGGGTTA [3d1572]
Second: TACACTTGTCGTAAGAACTTGGATGGGTTGA [3d693]
The fraction ligated of the first is higher: 0.0837 for the first, 0.00498 for the second.

First: TATCACTTGTCGTAGCATTTGGATGGGTTGA [3d2005]
Second: TATCACTTGTCGTAAGACCTTTGGATGGTTA [3d2203]
The fraction ligated of the first is higher: 0.815 for the first, 0.127 for the second.

Compared with “TATCACTTGTGTAAGACATTTGGATGGGTTA [3d1784]”, TATATGTCGTAAGACACTTTGGATGGGTTGA [3d758] is lower in fraction ligated: 0.822 for the first, 0.57 for the second.

Going from TAACTTGTCTAAGACACTTTGGATGGGTTGA [3d513] to TATCCTGTCGTAGACACTTTGGATGGGTTGA [3d955], the fraction ligated rises from 0.123 to 0.779.

Going from TATATTGTCGTAAGACACTTTGGATGGGTTGA [2d70] to “TATCACTTGTGAAGACACTTTGATGGGTTGA [3d1725]”, the fraction ligated rises from 0.61 to 0.818.

Compared with “TATCATTGTGTAAGACATTTGGATGGGTTGA [3d1179]”, ATCATTGTGTAAGACACTTTGGATGGGTTGA [3d89] is lower in fraction ligated: 0.839 for the first, 0.79 for the second.

First: TATCACTTTCGTAAACACTTTGGATGGGTTA [3d1527]
Second: TATCACTGCGTAAGACACTTTGATGGGTTGA [3d1337]
The fraction ligated of the first is lower: 0.575 for the first, 0.763 for the second.

Compared with TATACTTGCGTAAGACATTTGGATGGGTTGA [3d820], “TATCATTGTCTAAGACACTTTGGATGGGTTGA [2d113]” is higher in fraction ligated: 0.722 for the first, 0.785 for the second.

First: TATCATTGTCGTAAGACACTTTGGTGGGTTA [3d1284]
Second: TTCACTTGTCGAAGACACTTTGGTGGGTTGA [3d424]
The fraction ligated of the first is higher: 0.0335 for the first, 0.0265 for the second.

First: TATCACTTGCGTAAGACACTTGGATGGTTGA [3d1685]
Second: TATCACTTGCGAAGCACTTTGGATGGGTTGA [3d1615]
The fraction ligated of the first is lower: 0.152 for the first, 0.817 for the second.

Going from “TATCACTTGCGTAAACACTTTGGATGGGTTA [3d1647]” to “TATCACTTGTCGTAAGACACTTGGAGGTTGA [3d2248]”, the fraction ligated falls from 0.777 to 0.00668.

First: TATCACTTGTCTAAGAACTTTGGAGGGTTGA [3d1860]
Second: TATACTTGTCGAAGACCTTTGGATGGGTTGA [3d861]
The fraction ligated of the first is lower: 0.108 for the first, 0.478 for the second.

Compared with TACCTTGCGTAAGACACTTTGGATGGGTTGA [3d530], TACACTTGTCTAAGACACTTTGATGGGTTGA [3d640] is lower in fraction ligated: 0.392 for the first, 0.0986 for the second.

Compared with “TATCACTTGCGTAAGACATTTGATGGGTTGA [3d1675]”, “TATCACTTGTCGTAGCCTTTGGATGGGTTGA [3d2004]” is higher in fraction ligated: 0.574 for the first, 0.768 for the second.

“TATCACTTGTCGTAAGAACTTTGGATGGGTT [3d2181]” was tested, and the fraction ligated was 0.219.
